From patent US20050267020A1, “Polypeptides derived from inducible hsp70 and pharmaceutical compositions containing the same” (priority 2001, published 2005) come the findings set out here.

Where only a bound is given, the exact number is not on record here.

One test addresses T1, HLA-B*0702 (Homo sapiens, UniProt P01889).
T1 construct: expressed in transfected cells; host or cells: T2-B7 cells (Tap-/-)
Put plainly: Measurement of peptide relative affinity to HLA-B*0702. It is filed as binding. As to conditions: Relative Affinity determination. As for the experimental part: Measurement of Peptide Relative Affinity to HLA class I. Tap−/− cells expressing the studied HLA-class I molecule (3×10^5 cells/mL) were incubated with various concentrations of peptides ranging from 100 μM to 0.1 μM in serum-free RPMI 1640 medium supplemented with 100 ng/ml of human β-2m at 37° C. for 16 hours. Cells were then washed twice and stained with the specific anti-class I mAb followed by FITC conjugated goat anti mouse Ig mAb to quantify the expression of HLA-A*0201. For each peptide concentration, the HLA-specific staining was calculated as the % of the staining obtained with 100 μM of the reference peptide. The relative affinity (RA) is determined as: RA=(Concentration of each peptide that induces 20% of HLA expression/Concentration of the reference peptide that induces 20% of HLA expression). The lower the RA-value, the stronger is the peptide binding to HLA. The mean RA value for each peptide is determined from at least three independent experiments.
For the study of Relative Affinity to HLA-A*0201, Tap−/− HLA-A*0201 T2 cells, the HLA-A*0201 specific mAb BB7.2 and the reference HLA-A*0201-binding peptide HIVpol 589 (IVGAETFYV) were used. For the study of Relative Affinity to HLA-A*0301, Tap−/− HLA-A*0301 T2-A3 cells are used. For the study of Relative Affinity to HLA-B*0701, Tap−/− HLA-B*0701 T2-B7 cells are used.
High affinity peptide discovery was also lead for the MHC molecule HLA-B*0702. 11 peptides presenting the primary anchor motif for HLA-B*0702 or predicted to show a high affinity by the computerized program BIMAS were tested for their Relative Affinity.
Turning to YPVTNAVIT [HSP 137], the “affinity for HLA-B*0702 (in words)” value is listed as “high affinity”.

The same test, now with this note: towards HLA-B*0702 molecule; lower = stronger binding.
APLSLGLET [HSP 397] gave a Relative affinity greater than 10.
The same measure, in the same setting: in the case of DVAPLSLGL [HSP 395] it was greater than 10; in that of GPGPGGFGA [HSP 616], greater than 10.
On the same count and under the same terms, in the case of IPTKQTQIF [HSP 420] it was greater than 10.
IPTKQTQIFT [HSP 420(10)] showed a Relative affinity greater than 10.
Turning to QVCNPIISGL [HSP 601], the Relative affinity is on record as greater than 10.
The same measure, in the same setting: then STRIPKVQKL [HSP 340], with greater than 10; and YPEEISSMV [HSP 115], with greater than 10; and YPEEISSMVL [HSP 115(10)], with greater than 10.
Turning to YPVTNAVIT [HSP 137], the Relative affinity was determined as 1.2.
Same read-out and setting: in the case of YPVTNAVITV [HSP 137(10)] it was greater than 10.

The target in a further test is T2, HLA-A*0201 (human).
T2 construct: MHC class I molecule on TAP-deficient T2 cells; stabilised at the surface by the added peptide and detected with mAb BB7.2
The test can be described thus: HLA-A*0201 stabilisation on T2 cells, flow cytometry with BB7.2; ratio to reference peptide HIVpol 589.
Settings: not given
Regarding YLGYPVTNAV (also called HSPI34(10)) [HSP 134(10) (YLGYPVTNAV)], the Relative affinity is 0.6.
LLLLDVAPL [HSP 391 (LLLLDVAPL)]: the Relative affinity is 0.5.
On to YLGYPVTNA [HSP 134 (YLGYPVTNA)], for which the Relative affinity was determined as 2.5.
On the same count and under the same terms, in the case of LLDVAPLSL [HSP 393 (LLDVAPLSL)] it was 0.4.
On the same count and under the same terms, then SLFEGIDFYT [HSP 286 (SLFEGIDFYT)], with 0.25; and LMGDKSENV [HSP 380 (LMGDKSENV)], with 2.5.

A further test has as its target T2, HLA-A*0201. Put plainly: decay of peptide-stabilised HLA-A*0201 on T2 cells after Brefeldin A, flow cytometry.
Settings: not given
Background: Flow cytometry measures light scatter and fluorescence of single cells or particles in a stream.
As for LLLLDVAPL [HSP 391 (LLLLDVAPL)], the “Stability (hrs) (DC50, half life of the HLA-A*0201/peptide complex)” value is greater than 6 h.
Still for that read-out and setting: in the case of SLFEGIDFYT [HSP 286 (SLFEGIDFYT)] it was greater than 6 h.
On the same count and under the same terms, then LMGDKSENV [HSP 380 (LMGDKSENV)], with 4 h.
